# B1: EspC (ESX-1 secreted protein C), wild type (natural protein)
# chain: MMTENLTVQPERLGVLASHHDNAAVDASSGVEAAAGLGESVAITHGPYCSQFNDTLNVYLTAHNALGSSLHTAGVDLAKSLRIAAKIYSEADEAWRKAIDGLFT
# Molecular target: the molecule itself
# Assay: SEC
protein,measurement,value
B1,stoichiometry N,6

# From publication doi:10.1101/2021.09.24.461649 (bioRxiv, 2021)
